Experimental data as given in patent US20220315554A1, “COMPOUNDS COMPRISING A […] LIGAND AND USE THEREOF” (priority 2019, published 2022).

Experiments:
[1] = biological target: human fibroblast activation protein (FAP) on FAP-expressing human WI-38 fibroblasts (human); test: competition FACS, WI-38 cells, vs Cy5-labeled compound; A: pIC50 >8.0
[2] = biological target: T1, Recombinant human FAP (R&D systems, #3715-SE) (human)
T1 sequence: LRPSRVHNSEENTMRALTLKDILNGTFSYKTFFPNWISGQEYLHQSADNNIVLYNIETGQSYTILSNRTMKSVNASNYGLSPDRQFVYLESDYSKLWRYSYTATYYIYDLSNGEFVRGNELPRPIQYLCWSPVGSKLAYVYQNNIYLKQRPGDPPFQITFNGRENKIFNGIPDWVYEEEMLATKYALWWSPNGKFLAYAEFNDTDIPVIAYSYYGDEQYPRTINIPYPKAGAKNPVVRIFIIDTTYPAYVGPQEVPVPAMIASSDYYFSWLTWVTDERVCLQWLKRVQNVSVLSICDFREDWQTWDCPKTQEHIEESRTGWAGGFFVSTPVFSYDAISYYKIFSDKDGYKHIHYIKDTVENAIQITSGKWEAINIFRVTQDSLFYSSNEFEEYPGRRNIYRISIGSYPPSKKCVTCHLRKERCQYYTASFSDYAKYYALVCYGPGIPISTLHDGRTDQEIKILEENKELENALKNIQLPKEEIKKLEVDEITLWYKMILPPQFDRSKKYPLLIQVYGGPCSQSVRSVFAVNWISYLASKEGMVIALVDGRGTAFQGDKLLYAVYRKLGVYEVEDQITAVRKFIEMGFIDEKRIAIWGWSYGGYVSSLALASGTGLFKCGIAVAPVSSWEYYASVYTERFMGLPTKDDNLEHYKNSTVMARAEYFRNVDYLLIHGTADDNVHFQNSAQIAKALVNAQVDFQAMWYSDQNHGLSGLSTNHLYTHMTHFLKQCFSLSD

pIC50 Category (FACS) [1]	pIC50 Category (Activity) [2]	Substance
> 8 pIC50	> 8 pIC50	Ac-Met-[Cys(3MeBn)-Pro-Pro-Thr-Glu-Phe-Cys]-Asp-His-Phe-Arg-Asp-NH2 (peptide)
> 8 pIC50	> 8 pIC50	Ac-Met-[Cys(3MeBn)-Gly-Pro-Thr-Glu-Phe-Cys]-Asp-His-Phe-Arg-Asp-NH2 (peptide)
> 8 pIC50	> 8 pIC50	Ac-Met-[Cys(3MeBn)-Pro-Pro-Thr-Glu-Phe-Cys]-Asp-His-Mpa-Arg-Asp-NH2 (peptide)
> 8 pIC50	> 8 pIC50	Hex-[Cys(3MeBn)-Pro-Pro-Thr-Gln-Phe-Cys]-Asp-Ttds-Lys(DOTA)-NH2 (peptide)
> 8 pIC50	> 8 pIC50	Hex-[Cys(tMeBn(DOTA-AET))-Pro-Pro-Thr-Gln-Mpa-Cys]-OH (peptide)
	< 6 pIC50	Hex-[Cys(3MeBn)-Pro-Pro-Thr-Ala-Phe-Cys]-NH2 (peptide)
> 8 pIC50	> 8 pIC50	Hex-[Cys(tMeBn(DOTA-AET))-Pro-Pro-Thr-Gln-Phe-Cys]-Gly-OH (peptide)
> 8 pIC50	> 8 pIC50	Ac-Met-[cys(3MeBn)-Pro-Pro-Thr-Glu-Phe-Cys]-Asp-His-Phe-Arg-Asp-NH2 (peptide)
> 8 pIC50	> 8 pIC50	Hex-[Cys(3MeBn)-Pro-Pro-Thr-Glu-Phe-Cys]-Asp-His-Ppa-arg-Ttds-Lys(DOTA)-NH2 (peptide)
> 8 pIC50	> 8 pIC50	DOTA-Ttds-Met-[Cys(3MeBn)-Pro-Pro-Thr-Glu-Phe-Cys]-Asp-His-Phe-Arg-Asp-NH2 (peptide)
> 8 pIC50	> 8 pIC50	Hex-[Cys(tMeBn(InDOTA-AET))-Pro-Pro-Thr-Gln-Phe-AET] (peptide)
> 8 pIC50	> 8 pIC50	DOTA-Ttds-Nle-[Cys(3MeBn)-Pro-Pro-Thr-Glu-Phe-Cys]-Asp-Pamb-Arg-NH2 (peptide)
	> 8 pIC50	Hex-[Cys(3MeBn)-Pro-Pro-Thr-Gln-Otf-Cys]-NH2 (peptide)
> 8 pIC50	> 8 pIC50	Hex-[Cys(tMeBn(DOTA-AET))-Nmg-Pro-Thr-Gln-Phe-Cys]-OH (peptide)
> 8 pIC50	> 8 pIC50	Ac-Met-[Cys(3MeBn)-Pro-Pro-Thr-Glu-Phe-Cys]-Asp-His-Amf-Arg-Asp-NH2 (peptide)
> 8 pIC50		Ac-Met-[Cys(3MeBn)-Pro-Pro-Thr-Glu-Phe-Cys]-Asp-Ala-Phe-Arg-Asp-NH2 (peptide)
> 8 pIC50	> 8 pIC50	Hex-[Cys(tMeBn(DOTA-AET))-Pro-Hyp-Thr-Gln-Phe-Cys]-OH (peptide)
> 8 pIC50	> 8 pIC50	Ac-Met-[Cys(3MeBn)-Pro-Pro-Thr-Glu-Phe-Cys]-Asp-His-phe-Arg-Asp-NH2 (peptide)
> 8 pIC50	> 8 pIC50	Ac-Met-[Cys(3MeBn)-Pro-Pro-Thr-Glu-Phe-Cys]-Asp-His-Phe-Arg-asp-NH2 (peptide)
> 8 pIC50	> 8 pIC50	Ac-met-[Cys(3MeBn)-Pro-Pro-Thr-Glu-Phe-Cys]-Asp-His-Phe-Arg-Asp-NH2 (peptide)
> 8 pIC50	> 8 pIC50	DOTA-Ttds-Nle-[Cys(3MeBn)-Pro-Pro-Thr-Gln-Phe-Cys]-Bal-OH (peptide)
> 8 pIC50	> 8 pIC50	Ac-Met-[Cys(3MeBn)-Pro-Pro-Thr-Glu-Thi-Cys]-Asp-His-Phe-Arg-Asp-NH2 (peptide)
> 8 pIC50	> 8 pIC50	Hex-[Cys(3MeBn)-Pro-Pro-Thr-Glu-Phe-Cys]-Asp-Cmp-Arg-NH2 (peptide)
> 8 pIC50	> 8 pIC50	Ac-Met-[Cys(3MeBn)-Pro-Pro-Thr-Glu-Phe-Cys]-Asp-His-Phe-Arg-Ala-NH2 (peptide)
> 8 pIC50	> 8 pIC50	Hex-[Cys(tMeBn(DOTA-AET))-Pro-Pro-Thr-Gln-Phe-AET] (peptide)
> 8 pIC50	> 8 pIC50	Hex-[Cys(3MeBn)-Pro-Pro-Thr-Glu-Phe-Cys]-Asp-Pamb-Arg-NH2 (peptide)
> 8 pIC50	> 8 pIC50	Hex-[Cys(3MeBn)-Pro-Pro-Thr-Glu-Phe-Cys]-Asp-Arg-NH2 (peptide)

pIC50 Category (FACS) [1]	pIC50 Category (Activity) [2]	Substance
> 8 pIC50	> 8 pIC50	Hex-[Cys(tMeBn(DOTA-AET))-Pro-Pro-Thr-Gln-Phe-Cys]-Gab-OH (peptide)
	< 6 pIC50	Hex-[Cys(3MeBn)-Pro-Pro-Ala-Glu-Phe-Cys]-NH2 (peptide)
> 8 pIC50	> 8 pIC50	Ac-Met-[Cys(3MeBn)-Pro-Pro-Thr-Glu-Phe-Cys]-Asp-His-Aic-Arg-Asp-NH2 (peptide)
	> 8 pIC50	DOTA-Ttds-Nle-[Cys(3MeBn)-Pro-Pro-Thr-Glu-Phe-Cys]-Asp-NH2 (peptide)
> 8 pIC50	> 8 pIC50	Hex-[Cys(3MeBn)-Pro-Pro-Thr-Glu-Phe-Cys]-Asp-His-Phe-Arg-Asp-Ttds-Lys(DOTA)-NH2 (peptide)
> 8 pIC50	> 8 pIC50	Hex-[Cys(tMeBn(DOTA-AET))-Pro-Pro-Thr-Gln-Phe-Cys]-Bal-OH (peptide)
> 8 pIC50	> 8 pIC50	H-Met-[Cys(3MeBn)-Pro-Pro-Thr-Glu-Phe-Cys]-Asp-His-Phe-Arg-Asp-Ttds-Lys(Bio)-NH2 (peptide)
> 8 pIC50	> 8 pIC50	Hex-[Cys(tMeBn(DOTA-AET))-Pro-Pro-Thr-Gln-Otf-Cys]-OH (peptide)
> 8 pIC50		Hex-[Cys(3MeBn)-Pro-Pro-Thr-Glu-Phe-Cys]-Bal-OH (peptide)
> 8 pIC50	> 8 pIC50	Ac-Met-[Cys(3MeBn)-Pro-Pro-Thr-Glu-Phe-Cys]-Asp-His-Tic-Arg-Asp-NH2 (peptide)
	> 8 pIC50	Hex-[Cys(3MeBn)-Pro-Pro-Thr-Glu-Phe-Cys]-Pamb-Arg-NH2 (peptide)
> 8 pIC50	> 8 pIC50	Hex-[Cys(3MeBn)-Pro-Pro-Thr-Gln-Phe-Cys]-Bhk(DOTA-Ttds)-OH (peptide)
> 8 pIC50	> 8 pIC50	DOTA-Ttds-Nle-[Cys(3MeBn)-Pro-Pro-Thr-Glu-Phe-Cys]-Asp-His-Phe-Arg-Asp-NH2 (peptide)
> 8 pIC50	> 8 pIC50	Ac-Met-[Cys(3MeBn)-Pro-Pro-Thr-Glu-Phe-Cys]-Asp-His-Ala-Arg-Asp-NH2 (peptide)
> 8 pIC50	> 8 pIC50	Hex-[Cys(3MeBn)-Pro-Pro-Thr-Gln-Phe-Cys]-Bhk(DOTA)-OH (peptide)
> 8 pIC50	> 8 pIC50	Hex-[Cys(3MeBn)-Pro-Pro-Thr-Glu-Phe-Cys]-Asp-Ttds-Lys(DOTA)-NH2 (peptide)
> 8 pIC50	> 8 pIC50	H-met-[Cys(3MeBn)-Pro-Pro-Thr-Glu-Phe-Cys]-Asp-His-Phe-Arg-Asp-NH2 (peptide)
> 8 pIC50	> 8 pIC50	Hex-[Cys(3MeBn)-Pro-Pro-Thr-Glu-Phe-Cys]-Asp-Gab-Arg-NH2 (peptide)
> 8 pIC50	> 8 pIC50	Hex-[Cys(tMeBn(DOTA-AET))-Pro-Pro-Thr-Gln-Phe-Cys]-Bhf-OH (peptide)
> 8 pIC50	> 8 pIC50	DOTA-Ttds-Nle-[Cys(3MeBn)-Pro-Pro-Thr-Gln-Phe-Cys]-Asp-NH2 (peptide)
> 8 pIC50	> 8 pIC50	Ac-Met-[Cys(3MeBn)-Pro-Pro-Thr-Glu-Phe-Cys]-Asp-His-Nmf-Arg-Asp-NH2 (peptide)
> 8 pIC50	> 8 pIC50	Ac-Met-[Cys(3MeBn)-Pro-Pro-Thr-Glu-Phe-Cys]-Asp-His-Ppa-Arg-Asp-NH2 (peptide)
> 8 pIC50	> 8 pIC50	Hex-[Cys(3MeBn)-Pro-Pro-Thr-Glu-Phe-Cys]-Asp-His-phe-Arg-Ttds-Lys(DOTA)-NH2 (peptide)
> 8 pIC50	> 8 pIC50	Hex-[Cys(3MeBn)-Pro-Pro-Thr-Glu-Phe-Cys]-Asp-Mamb-Arg-NH2 (peptide)
> 8 pIC50	> 8 pIC50	Ac-Met-[Cys(3MeBn)-Pro-Pro-Thr-Glu-Phe-Cys]-Asp-His-Phe-arg-Asp-NH2 (peptide)
> 8 pIC50	> 8 pIC50	Hex-[Cys(tMeBn(DOTA-AET))-Pro-Pro-Thr-Gln-Phe-Cys]-Nmg-OH (peptide)
> 8 pIC50	> 8 pIC50	Hex-[Cys(3MeBn)-Pro-Pro-Thr-Glu-Phe-Cys]-Asp-His-Nmf-Arg-Ttds-Lys(DOTA)-NH2 (peptide)
